From the supplement of paper PMC9170038

Each sequence was assayed on MS2 coat protein (assay: apparent KD of MS2 coat protein, switch ON state; designed switch direction (-1 OFF switch, 1 ON switch): -1; higher = weaker reporter binding). Conditions: FMN input: 0 or 200 uM; Eterna round: R93 (includes R88 designs).
Outline: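 Titrations with SNAP-549-labelled MS2 coat protein ran in twofold steps from 0.7 or 1.5 nM to 3 µM, each step taking 0.8–1.5 h at the start and 10–20 min toward the end. The targets were designed RNA switches transcribed on-chip from Illumina sequencing clusters, held in 100 mM Tris-HCl pH 7.5, 80 mM KCl, 4 mM MgCl2, without or with constant ligand. Apparent KD was taken per design as the median of normalised cluster binding-curve fits.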

Question: For “AAAUUGUCAGGAUAUGUACGAACAACAAAACAAAUAACGGUACAGAAGGGACAUGAGGAUCACCCAUGUAUAAA [May 72]”, which “apparent KD of MS2 coat protein” value is on record?
Answer: 65.8 nM

Question: For “UCGUGGUCAGGAUAUACAUGAGGAUCACCCAUGUAAAAGAACACAAAGGAGAGACGACGUAGAAGGGACAAAUA [Erqugere]”, which “apparent KD of MS2 coat protein” value is on record?
Answer: 43.7 nM

Question: For “AACAGUACAGGAUAUACAUGAGGAUCACCCAUGUGGGUAAAAAGAUCGAGAGAUCCAUGUAGAAGGGUACUGGA [JL In the Red 05]”, which “apparent KD of MS2 coat protein” value is on record?
Answer: 36.7 nM

Question: With “AUCGAUCGAGGAUAUACAUGAGGAUCACCCAUGUAAAAAAAAAAAAAGUCCUCAGGACGUAGAAGGCGACGCAA [JR_Exc003_Sub401]” as the sequence, how does the “apparent KD of MS2 coat protein” value read?
Answer: 16.6 nM

Question: Which “apparent KD of MS2 coat protein” value does the source give for “AACUGACAUGAGGAUCACCCAUGUCAGGAUAUGAUUUGACGAAAAAAAAAAAGUCAUAUCAGAAGGGACAUGGA [Design 81: Sub-opt UB]” here?
Answer: 24.7 nM

Question: For “AUAAAACAUGAGGAUCACCCAUGUGAGGAUAUCCUAAAAGAAAGAAAAAAAAAAAAAUGGAGAAGGCACAAUAA [Amethyst 47]”, which “apparent KD of MS2 coat protein” value is on record?
Answer: 119 nM

Question: For “AAAGGUGCAGGAUAUGCGUGGAAAAAGUGUAUUCAAAAAAAACAUGAGGAUCACCCAUGUAGAAGGGUACCAAA [MS2 Riboswitches On Chip Exclusion 2 wbt2]”, which “apparent KD of MS2 coat protein” value is on record?
Answer: 55.7 nM

Question: “AAAGAGUGAGGAUAUUCGGAUAGGAAAACGAAAACCUAUCCGAAGAAGGCACAUGAGGAUCACCCAUGUAAAAA [67% Ecls-II - Early G segment 2]” was tested. Which “apparent KD of MS2 coat protein” value did it give?
Answer: 37.3 nM

Question: “CUCAUGUCAGGAUAUCAGUAGUAAAAAAAUAAAAUUACUACUGAGAAGGGACAUGAGGAUCACCCAUGUCAAAA [EX4 363: Super Stable 63]” was tested. Which “apparent KD of MS2 coat protein” value did it give?
Answer: 20.7 nM

Question: For “AGCUAGUCAGGAUAUACGAGAAUGACAAAAGACGUGAAGGGACAUGAGGAUCACCCAUGUAGAAGGGACUAGCA [Diamond 24]”, which “apparent KD of MS2 coat protein” value is on record?
Answer: 39.2 nM

Question: How did the “apparent KD of MS2 coat protein” value turn out when “AAAAAGGCAGGAUAUGCAUACCCACGGAAAAAAAGGCUGGGACAUGAGGAUCACCCAUGUAGAAGGGCCAAAAA [Dora Explored 12 - Jieux - Exclusion 2]” was run?
Answer: 21.5 nM

Question: How did the “apparent KD of MS2 coat protein” value turn out when “GCAGGCCAAGGAUAUACAUGAGGAUCACCCAUGUGAGAGAAAAAAGUGAGAAAGAAAAGUAGAAGGUGGUUUGG [salish99-ex3-113]” was run?
Answer: 71.7 nM

Question: For “CCUGGCUUAGGAUAUACAGGAACCGGGAACCCGGAAGUGAAACAUGAGGAUCACCCAUGUAGAAGGAAGAAAGC [Leusanzaus]”, which “apparent KD of MS2 coat protein” value is on record?
Answer: 23.9 nM

Question: How did the “apparent KD of MS2 coat protein” value turn out when “CUCAAGUCAGGAUAUAUAAGAAAAGAAGAGAAAGAAAAGAAAUAGAAGGGACAUGAGGAUCACCCAUGUAAGAA [EteRNA is fun!]” was run?
Answer: 34.5 nM

Question: How did the “apparent KD of MS2 coat protein” value turn out when “AAACCACAUGAGGAUCACCCAUGUUAGGAUAUGCUAUGGAAAAUAAAAAUAAAACAUAGCAGAAGGGACAAAAA [Denovo 7]” was run?
Answer: 19.3 nM

Question: Which “apparent KD of MS2 coat protein” value does the source give for “AAAAGACAUGAGGAUCACCCAUGUGAGGAUAUGACGUAAAUAAAGAAAGAAGAAAUCGUCAGAAGGCACACCUA [55%, Disencluded 2, 1]” here?
Answer: 29.5 nM

Question: With “CUCUAGUGAGGAUAUCCAAGAAAAGAAGAGAAAGAAAAGAAGGAGAAGGCACAUGAGGAUCACCCAUGUAAGAA [EteRNA is fun!]” as the sequence, how does the “apparent KD of MS2 coat protein” value read?
Answer: 44.1 nM

Question: With “CUCAUGUCAGGAUAUCCAUGAAAUGAAGUGAAAGAAAAGAAGGAGAAGGGACAUGAGGAUCACCCAUGUUAGAA [EteRNA is fun!]” as the sequence, how does the “apparent KD of MS2 coat protein” value read?
Answer: 34.1 nM

Question: How did the “apparent KD of MS2 coat protein” value turn out when “GUGUACAGAGGAUAUACUGGAGCUAGGAAACUAGCAAGAUCACAUGAGGAUCACCCAUGUAGAAGGCUGUACAC [Ex2: 743]” was run?
Answer: 90.8 nM

Question: How did the “apparent KD of MS2 coat protein” value turn out when “AAGAACGAAGGAUAUACAAAAUAAAAGAAAAGAAAGAAAGAACAUGAGGAUCACCCAUGUAGAAGGUCGAAGAA [Awybre Hor I]” was run?
Answer: 10.5 nM

Question: “AGAAAACAUGAGGAUCACCCAUGUGAGGAUAUCGAAAAGAAAAGAAAAGAAAGAAGAAUGAGAAGGCACAAGAA [Khaba]” was tested. Which “apparent KD of MS2 coat protein” value did it give?
Answer: 29.5 nM

Question: Which “apparent KD of MS2 coat protein” value does the source give for “AAGUCGUGAGGAUAUACAUGGAUAUACAUUCAUGUGGACCUACAUGAGGAUCACCCAUGUAGAAGGCACGAAUA [AJ 49]” here?
Answer: 35.2 nM

Question: How did the “apparent KD of MS2 coat protein” value turn out when “AAAAAACAUGAGGAUCACCCAUGUAAGGAUAUGCGAAAAUAAAAUAAAAUAAAAUAAAGCAGAAGGUACAAAAA [66%, Wbt, 1]” was run?
Answer: 32.6 nM

Question: With “CAGUACUGAGGAUAUACAUGAGGAUCACCCAUGUGGUCAAGCUAGGAAACUAGCAAAUGUAGAAGGCAGUACUG [Ex3: 812]” as the sequence, how does the “apparent KD of MS2 coat protein” value read?
Answer: 80.9 nM

Question: “GGAUGUCUAGGAUAUACAUGAGGAUCACCCAUGUGAGAGAAAAAAGUGAGAAAGAAAAGUAGAAGGAGGUGUCG [salish99-ex3-88]” was tested. Which “apparent KD of MS2 coat protein” value did it give?
Answer: 35.6 nM

Question: How did the “apparent KD of MS2 coat protein” value turn out when “AGUAGUACAGGAUAUACAUGAGGAUCACCCAUGUGAGAAUUAAGUGGCGUACCACAAAGUAGAAGGGUACUACA [Mat - Exclusion 3 - JL mod - D38]” was run?
Answer: 40.1 nM

Question: With “GAAAAGGCAGGAUAUGCAAGGAUAUAGAAGGAAAAAAAAAAACAUGAGGAUCACCCAUGUAGAAGGGCCAAAAG [salish99-ex2-10]” as the sequence, how does the “apparent KD of MS2 coat protein” value read?
Answer: 57.2 nM

Question: Which “apparent KD of MS2 coat protein” value does the source give for “CUCUUGUCAGGAUAUUGAAGAAAAGAAAAGAAAGAAAAGAACAAGAAGGGACAUGAGGAUCACCCAUGUAAGAA [EteRNA is fun!]” here?
Answer: 74.2 nM

Question: Which “apparent KD of MS2 coat protein” value does the source give for “GGAAAGCAAGGAUAUACAAACAAACAAACAAACAAAAGGGAACAUGAGGAUCACCCAUGUAGAAGGUGCAAACA [Exclusion 2 XX]” here?
Answer: 41 nM

Question: “AAAAGUACAGGAUAUACAUGAGGAUCACCCAUGUGAAAAUUAAGUGGCGUACAACAAAGUAGAAGGGUACUGGA [Ruby 52]” was tested. Which “apparent KD of MS2 coat protein” value did it give?
Answer: 20.7 nM

Question: For “AACCCGCUAGGAUAUACAGCAGGGAUUCGAAAACCCACGAAACAUGAGGAUCACCCAUGUAGAAGGAGUAGGGA [Bereatenat]”, which “apparent KD of MS2 coat protein” value is on record?
Answer: 22.7 nM

Question: How did the “apparent KD of MS2 coat protein” value turn out when “ACUAAUGAAGGAUAUACAAACAAAAAAAAAACAACAAACAAACAUGAGGAUCACCCAUGUAGAAGGUCAAAAAU [JR_Exc002_Sub1202]” was run?
Answer: 22.2 nM

Question: Which “apparent KD of MS2 coat protein” value does the source give for “AAAAAGUCAGGAUAUACAUGAGGAUCACCCAUGUAGCAUACGAAAAAGAGUGUGCAGUGUAGAAGGGACAAAAA [Exclusion3-cac3]” here?
Answer: 19.5 nM

Question: Which “apparent KD of MS2 coat protein” value does the source give for “GAAAAGUUAGGAUAUACAGAUAAAAAAACGAAAAAAAAUCUGUAGAAGGAACAUGAGGAUCACCCAUGUAAAAG [Mat - Exclusion 4 - Mayanna - D103]” here?
Answer: 34.7 nM

Question: With “GGUUGGCGAGGAUAUACAUGAGGAUCACCCAUGUGAGAGAAAAAAGUGAGAAAGAAAAGUAGAAGGCGCUGACC [salish99-ex3-04]” as the sequence, how does the “apparent KD of MS2 coat protein” value read?
Answer: 45.7 nM

Question: How did the “apparent KD of MS2 coat protein” value turn out when “GAUCAGCUAGGAUAUACAUUAAUCCGAAAUGAGAAGAAAGAACAUGAGGAUCACCCAUGUAGAAGGAGCCAGUA [Usinisat]” was run?
Answer: 33.7 nM

Question: For “AACGCGUCAGGAUAUAGCAUAAAUUACGUAGUACGACCAUACUAGAAGGGACAUGAGGAUCACCCAUGUGGGUA [JR_Exc004_Sub207]”, which “apparent KD of MS2 coat protein” value is on record?
Answer: 167 nM

Question: Which “apparent KD of MS2 coat protein” value does the source give for “AGCUAGUCAGGAUAUACGAACAUGUCAAAAGACGUGAACGGACAUGAGGAUCACCCAUGUAGAAGGGACUAGCA [Diamond 5]” here?
Answer: 16.2 nM

Question: For “AACAUGUUAGGAUAUUCAAGAAAAGAAAAGAAAGAAAAGAAGAAGAAGGAACAUGAGGAUCACCCAUGUAAGAA [EteRNA is fun!]”, which “apparent KD of MS2 coat protein” value is on record?
Answer: 33.3 nM

Question: With “AAGAACGGAGGAUAUACAUGAAAGAAAGAAAAGAAAAGAAAACAUGAGGAUCACCCAUGUAGAAGGCCGAAGAA [EteRNA is fun!]” as the sequence, how does the “apparent KD of MS2 coat protein” value read?
Answer: 23.4 nM

Question: For “AAAAGUUGAGGAUAUACAAAAUGAUUGCGAAAUCAAUUAAAACAUGAGGAUCACCCAUGUAGAAGGCGAUAAAA [Banishment 4 - Jieux - Exclusion 2]”, which “apparent KD of MS2 coat protein” value is on record?
Answer: 27 nM

Question: “AGCUAGUGAGGAUAUACGAACAAGUCAACGGACUGUAAGGGACAUGAGGAUCACCCAUGUAGAAGGCACUAGCA [Diamond 58]” was tested. Which “apparent KD of MS2 coat protein” value did it give?
Answer: 29.4 nM

Question: Which “apparent KD of MS2 coat protein” value does the source give for “AGAAAACAUGAGGAUCACCCAUGUGAGGAUAUCUAAAAGAAAAGAAAAGAAAGAAGAAGGAGAAGGCACAAGAA [Sanakhte]” here?
Answer: 37.4 nM

Question: How did the “apparent KD of MS2 coat protein” value turn out when “AGCAAACAUGAGGAUCACCCAUGUUAGGAUAUGAACGAAAUAAAAUAAAAAUAAAAGUUCAGAAGGGACGAGCA [Mat - Exclusion 1 - Eli mod - D27]” was run?
Answer: 22.4 nM

Question: Which “apparent KD of MS2 coat protein” value does the source give for “CGUUGGCGAGGAUAUACAUGAGGAUCACCCAUGUGAGAGAAAAAAGUGAGAAAGAAAAGUAGAAGGCGCUGACC [salish99-ex3-13]” here?
Answer: 45.1 nM

Question: With “AAAAAGAUAGGAUAUACAUGAAAAAAAAAAAAAAAAAAAAGACAUGAGGAUCACCCAUGUAGAAGGGUCAAAAA [water's exclusion 2 2nd]” as the sequence, how does the “apparent KD of MS2 coat protein” value read?
Answer: 50.3 nM
